The results in this text go back to article PMC2668188, “In Vitro Recombination Catalyzed by Bacterial Class 1 Integron Integrase IntI1 Involves Cooperative Binding and Specific Oligomeric Intermediates”.

Series [1] has as its target T1, IntI1(His)6 integron integrase (Pseudomonas aeruginosa Pa695 (class 1 …, UniProt Q7BP41 1-337)).
T1 sequence: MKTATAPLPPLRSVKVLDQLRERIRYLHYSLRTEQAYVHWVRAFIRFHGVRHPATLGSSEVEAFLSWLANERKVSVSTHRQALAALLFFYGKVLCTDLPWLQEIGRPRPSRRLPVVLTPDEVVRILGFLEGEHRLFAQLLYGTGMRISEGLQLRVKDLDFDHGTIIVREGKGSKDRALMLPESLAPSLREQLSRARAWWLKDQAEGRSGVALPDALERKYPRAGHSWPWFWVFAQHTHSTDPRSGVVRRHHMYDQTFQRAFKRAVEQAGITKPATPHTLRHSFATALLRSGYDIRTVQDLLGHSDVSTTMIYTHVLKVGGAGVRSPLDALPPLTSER
Put plainly: EMSA; EMSA: 0.1 pmol DNA, 1-15 pmol IntI1 in 20 µl, 20 min at 4°C, 1% agarose at 4°C; filter binding wash: HEPES 20 mM pH 7.5, MnCl2 10 mM, NaCl 30 mM (binding buffer itself not given). As to conditions: protein: recombinant; tags: His6; chain copies: 2; label: 5' 32P; blunt.

Series [2] concerns the target T1, IntI1(His)6 integron integrase. Description: EMSA; filter binding; preincubated with dsattI1 (0.1 pmol); binding strongly increased, almost to bsattC level; EMSA: 0.1 pmol DNA, 1-15 pmol IntI1 in 20 µl, 20 min at 4°C, 1% agarose at 4°C; filter binding wash: HEPES 20 mM pH 7.5, MnCl2 10 mM, NaCl 30 mM (binding buffer itself not given). As to conditions: protein: recombinant; tags: His6; chain copies: 2; label: 5' 32P; blunt. On the technique in general: In EMSA bound probe runs differently from free probe, usually more slowly.

B1: dsattI1 (dsDNA)
DNA 1: ACGCCGTGGGTCGATGTTTGATGTTATGGAGCAGCAACGATGTTACGCAGCAGGGCAGTCGCCCTAAAACAAAGTTAGGTGGCTCAATGAGCATCATTGC
DNA 2: GCAATGATGCTCATTGAGCCACCTAACTTTGTTTTAGGGCGACTGCCCTGCTGCGTAACATCGTTGCTGCTCCATAACATCAAACATCGACCCACGGCGT
For the molecule B1, the binding result in series [1] is on record as “binds”.

B2: dsattC (dsDNA)
DNA 1: CGCCCGTCTAACAATTCGTTCAAGCCGACGTTGCTTCGTGGCGGCGCTTGCGTGCTACGCTAAGCTTCGCACGCCGCTTGCCACTGCGCACCGCGGCTTAACTCAGGCGTTAGATGCACT
DNA 2: AGTGCATCTAACGCCTGAGTTAAGCCGCGGTGCGCAGTGGCAAGCGGCGTGCGAAGCTTAGCGTAGCACGCAAGCGCCGCCACGAAGCAACGTCGGCTTGAACGAATTGTTAGACGGGCG
Consider B2, for which the binding result in series [2] is listed as “binds”.
